Experimental data: the supplement of paper PMC12042874
± gives the uncertainty stated by the source.

test: amyloid nucleation score (Sup35N fusion, yeast selection) (log enrichment); library NNK2; higher = more nucleation; inactive = no reads after selection
Outline: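 Sup35N fusions to peptides of 20 random codons were expressed in psi-negative yeast, induced 24 hours with 100 μM copper sulfate, and grown 7 days at 30°C on medium lacking adenine and uracil. Input and output plasmid inserts were sequenced by Illumina. The nucleation score is the DiMSum log enrichment of output over input reads, centred on the mode score of non-aggregating sequences. Sequences with under 100 input reads were excluded.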

Row | Substance | amyloid nucleation score
1 | FGCIFYPMYLS | 5.32 ± 0.088
2 | VRPCRP | 1.49 ± 0.55
3 | TCILMLCQECVCTF | 9.809 ± 0.051
4 | FRKGNIMELFALCCMISYCF | -0.682 ± 0.49
5 | CLKSISTRNR | -0.932 ± 0.76
6 | SLQSYGVYR | -0.359 ± 0.76
7 | YVMNRCNR | -0.019 ± 0.54
8 | ANLWNEGFPLNGLHDNGIDQ | -0.379 ± 0.49
9 | WDSSPGISVVSIRLEQ | 5.431 ± 0.036
10 | LCAWDWSGTRVR | 0.903 ± 0.67
11 | VRARYASLCHGIAAEGIVGV | 0.506 ± 0.28
12 | RFICYSHTFTGSMLSISIR | 8.061 ± 0.077
13 | GVVTSSSRYLY | 0.072 ± 1.1
14 | PTPYKGRLLFPHHSGLYLIG | -1.23 ± 1.1
15 | PLCHLLYRSLMFFTLSEVSC | 0.042 ± 0.8
16 | TGGRF | 0.264 ± 0.8
17 | FVGCYNSRK | 2.4 ± 0.08
18 | CITFS | -0.817 ± 0.46
19 | DGFRVCDMFGHAWGVENIPF | 0.086 ± 0.31
20 | SLVKVGDKRYMFVSTQGKSL | 0.055 ± 0.42
21 | CFYSNWKQGYDICHVSGDRF | -0.956 ± 0.78
22 | PGSRRL | 0.011 ± 0.41

Row | Substance | amyloid nucleation score
23 | RFFHGYFCGIRCRCQAVCQL | inactive
24 | LGVTLFFQGDSTTRWDLYPV | inactive
25 | DKSAVMVFNRRYVPWFGIRY | inactive
26 | VTDWACGMILIYVLRKILVM | 0.461 ± 0.47
27 | TLTYFLNSSWD | 1.93 ± 0.25
28 | VRMMCLQGATTGATNSPSNR | -0.526 ± 0.37
29 | ATTYAYTGAQLTWFRWMVVQ | 0.832 ± 0.31
30 | VVMLVRT | 3.87 ± 0.064
31 | HIPRCINLVVRCTVKLVDGS | 2.35 ± 0.14
32 | VCLMLS | -0.573 ± 1.1
33 | QSGYVGNGVWVVTVVSKLMC | 6.796 ± 0.037
34 | LRSCSCIGKLDEEPGGFACA | -0.956 ± 0.78
35 | SMYLKKGRSVRGGMG | -0.66 ± 0.44
36 | YFSKMS | -0.817 ± 0.43
37 | KFFFSCTTKFL | 3.06 ± 0.1
38 | MLCVIHE | 0.675 ± 0.25
39 | LFVSSDRHRSDESSGDACCL | -0.494 ± 0.76
40 | LLQIQCICEGMRQWMLKYYY | -0.994 ± 1.1
41 | FSNSTIFDVHAQVLGDFERP | -0.254 ± 1
42 | KCLDSFDMSDMYSR | -0.632 ± 1.1
43 | FEGTHCVSSIANVMCVRWCL | 6.43 ± 0.069
44 | HSCRTYI | inactive

Row | Substance | amyloid nucleation score
45 | NTRASSKGIDMGYCQYH | 0.066 ± 0.49
46 | YGSQISLTKEARQEKDTSGS | -0.815 ± 0.34
47 | DSPFLQNLMWNIFVGRIATM | -0.272 ± 0.31
48 | DGYIELS | 0.302 ± 0.41
49 | LGAGTSWAWLNLTYSEGTYK | 0.27 ± 0.8
50 | YYYDYVCLLWDLEEVSRHAL | -0.442 ± 1
51 | GLCYKFVRFSYA | 2.16 ± 0.1
52 | LLGWPRLYLWTE | 0.402 ± 0.42
53 | YQYDNPVLDKT | -0.178 ± 0.55
54 | GRENWELHIRYVR | 4.06 ± 0.063
55 | DKRPALFVYSVCRVSSIR | -1.26 ± 0.49
56 | VDFIKIKRIGPER | -0.709 ± 0.38
57 | LELWFGDWNRVMYSCSVDWG | -0.096 ± 0.5
58 | SWRNSKISMPNSAFTSQDTV | 0.052 ± 0.31
59 | SRRFFVCL | inactive
60 | IQACYGFQSNDVPLISCT | -1.78 ± 0.49
61 | HRYLPSG | 0.224 ± 0.8
62 | CAVRWVGVS | 1.12 ± 0.23
63 | AACYCCISRMVLYFSFHGSC | inactive
64 | GICVFCNSYWL | 8.843 ± 0.055
65 | IGRMGIQKWS | 0.698 ± 0.47
66 | MLIQVCALEGRYEVTQCVGG | 1.82 ± 0.12

Row | Substance | amyloid nucleation score
67 | MMDFYRLDLDRTVVVRNRYL | 0.389 ± 0.74
68 | VGLGVRVEVLTMSFTILQSV | 3.36 ± 0.078
69 | LGGRYDVVMLIYLQSALFMG | 0.285 ± 1
70 | HSFMSRVARVSWMEMVVTLA | 1.26 ± 0.41
71 | DKPTCETTV | -0.659 ± 0.49
72 | EMLKHCYTSTQSSYSFIYWR | -0.27 ± 0.65
73 | NGHFCWPFFMARHMELREE | -0.013 ± 0.56
74 | LYFDR | -0.417 ± 1.1
75 | TGWNDATRY | -0.467 ± 0.49
76 | RRKSGLEFLLISNYIILGFR | inactive
77 | WFTAVVLNS | 0.333 ± 0.25
78 | FLYIRRAVGKWFLVFVTLQQ | 0.135 ± 0.48
79 | CSHITYQMCFILLNTAYFSH | -0.159 ± 1.1
80 | GYAWPRGTSGVA | 0.353 ± 0.4
81 | LTSKAVAYNDLACFMLS | 0.613 ± 0.74
82 | INVVRTNIKYTMTFCIEGTN | 7.306 ± 0.032
83 | PKFLSFADSAFLICCRAIVF | 6 ± 0.08
84 | DTVLAI | 0.035 ± 0.74
85 | RIMISSIELDNCWYILGLSA | inactive
